Among the data in the RNAGym collection of RNA variant scans (doi:10.7554/elife.80360) are self-cleavage values, retold here.

The chains are these.
B1: Hairpin Ribozyme (parent)
chain: GUCCUCUUUCACGUGCGCGUGAAAGAGAGAAGUGAACCAGAGAAACACACGUUGUGGUAUAUUACCUGGUA

The data set covers variants of B1. Put plainly: self-cleavage, relative activity (ratio to wild type); higher = more cleavage; co-transcriptional.
As for U9C C16A, the self-cleavage worked out at 0.761.
The value for U8G G17C was 0.23; that for U8C A11U was 0.252; that for U9C U14A was 0.781.
The value for U9C A45C was 0.121; that for U9C A45U was 0.0912.
The value for U9C U52C was 0.6; that for U9C U52G was 0.74.
For the variant U9A G13A, the self-cleavage came out at 0.471.
The value for U9C G17C was 0.647; that for U9C G17A was 0.805.
The value for U8C A49G was 0.347; that for U8C A49U was 0.244.
The value for U8C G25U was 0.32; that for U9C G29U was 0.179.
For U9C G29C, the self-cleavage stood at 0.1.
Under U9A G56U stands 0.178; under U8G G15A, 0.897; under U8G G15C, 0.639.
The value for U9A G42C was 0.187.
In the case of U8G U55A, the self-cleavage stood at 0.193.
Turning to U8G U55C, the self-cleavage is 0.232.
U8A A28C: the self-cleavage is 0.385.
The value for U8A A28U was 0.613; that for U9A U20A was 0.605; that for U9A U20G was 0.583.
On to U8C A71G, for which the self-cleavage stood at 0.974.
Consider U8G G51A, for which the self-cleavage stood at 0.739.
Under U8C G34A stands 1.18; under U8G A45G, 0.125.
Under U9A A30U stands 0.195.
Under U9C G25U stands 0.386; under U9A A47C, 0.205.
Consider U8C C65A, for which the self-cleavage was found to be 0.788.
Under U8A A30U stands 0.0488; under U7G U33G, 0.194.
The value for U9C G40A was 0.313.
Under U7G G51C stands 0.908; under U8G C16G, 0.395; under U8G C16A, 0.648.
Turning to U8G C16U, the self-cleavage is 0.916.
The value for U8A A22C was 0.594; that for U9A G15U was 0.864.
Under U9A G15A stands 0.704; under U8G C10G, 0.676; under U8C G57A, 0.119.
Under U9A C10G stands 0.519; under U9A C10U, 0.455; under U9A C10A, 0.743.
U8G C46A: the self-cleavage amounted to 0.134.
The value for U8G C46G was 0.128; that for U8G C46U was 0.195; that for U8C G13A was 0.722.
Under U8C G13U stands 0.529; under U8C A30G, 0.144; under U8C A30U, 0.0797.
The value for U8G A41G was 0.673.
With U8G A41U, the self-cleavage is 1.07.
Regarding U9A U55C, the self-cleavage came out at 0.179.
Under U9A U55A stands 0.225.
Turning to U9C A36C, the self-cleavage worked out at 0.491.
The value for U8C U55A was 0.16.
Under U9C A61C stands 0.183; under U8C A44U, 0.142; under U8C A44G, 0.0935.
Under U8C A44C stands 0.131; under U9A U67C, 0.174; under U8A G56U, 0.134.
For U8A G56C, the self-cleavage was 0.196.
The value for U9A G51C was 0.673; that for U9A G51A was 0.688.
Under U8G A47U stands 0.168.
The value for U9A G21U was 0.732; that for U9A G21A was 0.573.
As to U8G A36C, the self-cleavage turned out to be 0.5.
The value for U7G U70A was 0.673; that for U9C G34U was 1.09; that for U8A G42A was 0.129.
The value for U8G G42A was 0.156; that for U9A A44C was 0.132; that for U9A A44U was 0.109.
The value for U8A G69C was 0.191; that for U8A G69U was 0.213; that for U8A G69A was 0.375.
In the case of U9C C65G, the self-cleavage was determined as 0.159.
On to U9C C65A, for which the self-cleavage amounted to 0.945.
On to U8G A59U, for which the self-cleavage was 0.188.
The value for U8G A59G was 0.121; that for U9A U14A was 0.594; that for U9C C46G was 0.167.
Regarding U9A G54U, the self-cleavage is 0.39.
The value for U8A G19A was 0.558; that for U8A G19C was 0.553.
The value for U8C C66G was 0.0616.
Take U7G G68A: the self-cleavage came to 0.3.
Under U7G G68C stands 0.224; under U9A A41U, 0.786; under U9A A41C, 0.783.
The value for U9A C66A was 0.166; that for U8G U62A was 0.0946; that for U8G U62C was 0.332.
Under U9A A59U stands 0.14; under U9C C38G, 0.145; under U8C G42A, 0.177.
As for U8C U52A, the self-cleavage is 0.676.
As for U9A G57U, the self-cleavage stood at 0.182.
Under U9A G57A stands 0.141; under U8C C37U, 0.347; under U9C A26C, 0.426.
The value for U9C A26G was 0.747; that for U8C G32C was 0.0916; that for U8G A28G was 0.843.
The value for U8A C18G was 0.524; that for U8A C18U was 0.779; that for U9A G27A was 0.25.
Turning to U9C G42A, the self-cleavage stood at 0.081.
As to U9C G42U, the self-cleavage came out at 0.34.
The value for U8A G40C was 0.156; that for U8G A26U was 0.281; that for U8G A26C was 0.25.
Under U8G A23C stands 1.21; under U9A A71U, 0.525; under U8A C65A, 0.63.
Under U8A C65U stands 0.258; under U8A C65G, 0.104; under U8A C10A, 0.458.
Regarding U9A A64C, the self-cleavage was 0.0749.
Under U9A A64G stands 0.284.
Consider U9A C65A, for which the self-cleavage stood at 0.69.
With U8C G21C, the self-cleavage is 0.114.
U8C G21A: the self-cleavage was determined as 0.264.
For the variant U9C A30G, the self-cleavage worked out at 0.336.
Regarding U7G U53G, the self-cleavage was 0.641.
Under U7G U53A stands 0.967; under U9C A23G, 0.814; under U9C A23C, 0.862.
Under U8A C38U stands 0.357; under U8G A43G, 0.132; under U9A A31U, 0.0478.
As to U9A A31C, the self-cleavage is 0.158.
Under U8A U67G stands 0.237; under U8G C18A, 0.72; under U8G C18U, 0.678.
The value for U8G G54U was 0.37; that for U9A A49C was 0.254.
The value for U8G G40A was 0.264; that for U8G G40C was 0.111; that for U8C U53C was 0.766.
Consider U9C G57U, for which the self-cleavage was found to be 0.185.
The value for U8C U63A was 0.0901; that for U8A A36C was 0.412; that for U9C G68C was 0.108.
Under U8A U14C stands 0.845; under U9C A49G, 0.21; under U9C A49C, 0.204.
Under U8G A64C stands 0.0997; under U8G A64U, 0.146; under U9C C18G, 0.56.
As for U8C G56U, the self-cleavage worked out at 0.167.
For U8A U63A, the self-cleavage came to 0.111.
Under U8G G25A stands 0.21.
U8G A22G: the self-cleavage amounted to 0.676.
Under U8C G29A stands 0.112; under U8C G29U, 0.081.
Under U8G A35G stands 0.667; under U8C U67C, 0.159.
Under U8C U67G stands 0.226.
